Earlier results as cited in publication PMC4394549.

Target: Arginyl-tRNA synthetase (Methanothermobacter thermautotrophicus) (UniProt O27496)
UniProt O27496, sequence (O27496 whole entry): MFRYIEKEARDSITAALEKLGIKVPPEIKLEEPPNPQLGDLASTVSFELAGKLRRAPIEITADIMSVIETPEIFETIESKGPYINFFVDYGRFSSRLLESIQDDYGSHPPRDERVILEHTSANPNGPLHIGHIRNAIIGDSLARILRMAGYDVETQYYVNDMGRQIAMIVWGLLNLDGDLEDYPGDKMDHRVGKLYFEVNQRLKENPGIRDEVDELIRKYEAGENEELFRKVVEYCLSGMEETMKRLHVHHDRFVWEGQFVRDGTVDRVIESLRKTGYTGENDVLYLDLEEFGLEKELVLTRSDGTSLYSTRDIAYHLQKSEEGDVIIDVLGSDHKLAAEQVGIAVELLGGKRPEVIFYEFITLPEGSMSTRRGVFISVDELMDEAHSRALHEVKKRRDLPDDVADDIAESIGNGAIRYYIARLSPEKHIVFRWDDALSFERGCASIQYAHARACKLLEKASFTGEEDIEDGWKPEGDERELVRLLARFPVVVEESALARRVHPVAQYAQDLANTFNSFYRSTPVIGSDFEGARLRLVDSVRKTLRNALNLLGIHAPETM

Seryl-tRNA synthetase (from UniProt O27194)
Kd: 250 nM
